Measurements taken from paper doi:10.1101/2024.12.12.628104 (bioRxiv, 2024).

Biological target: the molecule itself
Test: […]; 50 uM, […], pH 6.9; […]

B1: Francisella tularensis dihydrolipoyl dehydrogenase (IPD) (enzyme)
chain: MSDIKTQVVVLGSGPGGYSAAFRAADLGLEVVLVERYAEIGGVCLNVGCIPSKAMLHIAKVINEARHLESLGIIEMGGLKINRENLLKYKDGVIGKLTGGLKGMAQMRKVKIVQGYGKFTSDKELAVEAADGKVTKIAFDNCIIAAGSSVIKLPFVPEDDRIIDSTGALEMKEIPETMLVVGGGIIGLEMAQVYSELGTKITVVEFADQLMNGVDKDLVKAYQKVNSRYDVRLKTAVTAMEAKEDGIYVTMEGDHPAKDERFDRVLMAIGRKPNGKLIDAEKAGVKVDERGFIPVDKQLRTNVPHIFAIGDIVGQPMLAHKAVPEGRTAAEVISGLNHSFDPLVIPSVAYTDPEVAWVGETETSAKAKGIKYEKGVFPWAASGRSLSIDRSEGMTKILFDENHKIIGASIVGTHAGELISEAAIAIEMGCDAEDIALTVHPHPTLSESLMMATEVYEGTATDLPPQKKKK
notes: also called dihydroprolyl dehydrogenase; Francisella IPD
stoichiometry N: 2
